Broadly, the Kd is a measure of binding affinity in units of concentration. A higher Kd goes with lower affinity.

Holding throughout (experiment): BLI
Background: BLI is a label-free optical method that tracks binding on a fibre tip over time.

The target of assay [1] is NRP2 a2b1b2 (human neuropilin 2 residues 145-595, monoFc-tagged) (human) (UniProt O60462).
In assay [2] the target is monoFc-tagged NRP2 (human neuropilin 2 residues 23-595, a1a2b1b2) (human) (UniProt O60462).
The target in assay [3] is soluble ectodomain of the HCMV Pentamer (strain Towne) (Human cytomegalovirus strain Towne, UniProt P17176;F5HCH8;P16837;F5HCP3;F5HET4).

Chain of NRP2 a2b1b2 (human neuropilin 2 residues 145-595, monoFc-tagged) (human) (O60462 145-595): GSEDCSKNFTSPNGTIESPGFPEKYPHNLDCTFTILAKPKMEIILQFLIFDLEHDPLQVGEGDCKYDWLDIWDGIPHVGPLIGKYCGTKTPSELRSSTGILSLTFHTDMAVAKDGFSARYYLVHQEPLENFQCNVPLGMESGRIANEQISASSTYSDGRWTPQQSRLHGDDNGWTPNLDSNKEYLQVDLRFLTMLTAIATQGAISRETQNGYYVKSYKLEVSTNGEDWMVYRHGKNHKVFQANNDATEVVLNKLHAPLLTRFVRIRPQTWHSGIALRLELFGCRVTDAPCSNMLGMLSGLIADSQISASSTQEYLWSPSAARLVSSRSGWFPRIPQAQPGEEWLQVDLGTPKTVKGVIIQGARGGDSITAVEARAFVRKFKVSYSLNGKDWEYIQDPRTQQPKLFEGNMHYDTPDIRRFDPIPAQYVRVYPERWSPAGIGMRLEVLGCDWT
Chain of monoFc-tagged NRP2 (human neuropilin 2 residues 23-595, a1a2b1b2) (human) (O60462 23-595): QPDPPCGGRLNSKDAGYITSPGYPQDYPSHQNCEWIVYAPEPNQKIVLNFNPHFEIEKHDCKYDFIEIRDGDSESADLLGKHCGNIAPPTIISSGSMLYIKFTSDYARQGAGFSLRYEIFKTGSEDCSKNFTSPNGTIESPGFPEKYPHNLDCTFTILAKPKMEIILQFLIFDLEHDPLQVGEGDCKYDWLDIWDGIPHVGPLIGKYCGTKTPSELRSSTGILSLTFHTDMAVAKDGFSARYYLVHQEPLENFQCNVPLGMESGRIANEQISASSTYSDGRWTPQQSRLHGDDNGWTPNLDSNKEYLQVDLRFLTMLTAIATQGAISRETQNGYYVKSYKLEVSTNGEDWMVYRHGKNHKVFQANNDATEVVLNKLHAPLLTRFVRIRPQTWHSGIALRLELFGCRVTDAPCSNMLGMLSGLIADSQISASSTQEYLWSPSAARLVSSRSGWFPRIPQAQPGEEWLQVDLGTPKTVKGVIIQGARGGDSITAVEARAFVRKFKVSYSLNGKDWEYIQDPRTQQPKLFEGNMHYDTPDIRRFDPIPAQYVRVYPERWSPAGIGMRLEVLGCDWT

“soluble ectodomain of the HCMV Pentamer (strain Towne) (from UniProt P17176 24-718) (complex)”: the results for the Kd in assay [1] and in assay [2] were 7.9 nM and 2.2 nM, respectively.

B1: 1-32 IgG (antibody, V domains shown)
VH: QVKLVESGGGVVQPGRSLRLSCAGSGFAFDNYAMHWVRQAPGKGLEWVAVISLEGRNKYYAGPAKGRFSISRDNSRNTVHLQMNSLRPEDTAVYFCARDMRYYYDSNGHYRNRYGMDVWGQGTTVIVSS
VL: DIQMTQSPSSLSASVGDSVTITCQASQDINQFVSWYQQKPGKPPKLLIYDASNLESGVPSRFSGSGSGTHFTFTISSLQPDDIATYYCQQYENLFTFGPGTKVDIK
With B1, the binding result in assay [3] is recorded as “binds”.

Values taken from paper doi:10.1101/2021.03.25.436804 (bioRxiv, 2021).
